Values joined by “and” are separate entries in the source; they are usually repeats but may differ in a detail not shown here. Equal values may be shown once.
How the values were obtained:
[1] = target: T1, HER2 (Homo sapiens, UniProt P04626); test: Biacore SPR binding to immobilised HER2; conditions: immobilised HER2
Procedure, shortened: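 HER2 amine-coupled on CM5 or CM3 chips, Biacore T200. Free antibody (typically 5-0.6 μg/ml) and conjugates (20-2.5 μg/ml) injected 160 s at 30 μl/min, 900 s dissociation (3600 s at highest concentration); regeneration with 8M MgCl2. Kinetics compared with unmodified scFv.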

[2] = Plasma pharmacokinetics in BALB/c mice (ELISA, total antibody and total ADC); type: in vivo, mouse; conditions: for Bioavailability (blood exposure, AUC, 24 hrs) / Elimination half-life (hrs) Total Antibody: mice; for Bioavailability (blood exposure, AUC, 24 hrs): mean AUC in anti-payload and anti-protein detection; for Elimination half-life (hrs) Total Antibody: plasma ELISA
Experimental: Mice. Female BALB/c mice (BALB/cAnNCrl, Charles River) were eight weeks old with body weights ranging from 15.9 to 21.9 grams at the beginning of the study. The animals were fed ad libitum water (reverse osmosis, 1 ppm Cl) and NIH 31 Modified and Irradiated Lab Diet® consisting of 18.0% crude protein, 5.0% crude fat, and 5.0% crude fiber. The mice were housed on irradiated Enrich-o'cobs™ Laboratory Animal Bedding in static microisolators on a 12-hour light cycle at 20-22° C. (68-72° F.) and at 40-60% humidity. Charles River Discovery Services North Carolina (CR Discovery Services, who carried out this contracted R&D) specifically complies with the recommendations of the Guide for Care and Use of Laboratory Animals with respect to restraint, husbandry, surgical procedures, feed and fluid regulation, and veterinary care. The Animal Care and Use program at CR Discovery Services is accredited by the Association for Assessment and Accreditation of Laboratory Animal Care International, which assures compliance with accepted standards for the care and use of laboratory animals.
(§1) Therapeutic (test) Agents. All test agents were supplied as ready-to-dose dosing solutions. All dosing solutions were stored at 4° C. until dosed. All treatments were administered in a dosing volume scaled to the body weights of the individual animals to obtain the dosing concentration described in the treatment tables.
Treatment (mice). On Day 1 of the study, mice were divided into groups each consisting of eighteen mice (per test agent being evaluated), and dosing was initiated according to the treatment plan summarized in the treatment tables. All doses were administered intravenously (i.v.) by tail vein injection as described in the tables below.
Endpoint. The study endpoint occurred after the last sampling point, typically on Day 2 or 4, twenty-four or seventy-two hours post dose.
Sampling (mice). Blood (full blood volume) was collected from three animals per treatment group per timepoint. Samples were collected from all animals via terminal cardiac puncture under isoflurane anesthesia. Once collected, blood samples were collected into collection tubes containing lithium heparin or K2EDTA as anticoagulants and were processed for plasma at each timepoint. Each plasma sample was stored at −80° C. until used for analysis.
(§2) Quantification of test agents in plasma. An ELISA was carried out as described in Example 31 The detecting antibodies were (a) Anti-T7 tag to detect the scFv (total antibody), (b) Anti-Human Fab-specific to detect trastuzumab (total antibody), (c) Anti-MMAF (Concortis), Anti-MMAE (Concortis), anti-DM1
(§3) (Concortis) and anti-cemadotin (in-house mouse monoclonal antibody, Example 33 that also recognised P5C5 and AuristatinF), total ADC. The reference test agents were used to construct a calibration curve for which the plasma samples were compared to, in order to quantify the amount present. The concentration was plotted against time (average of three animals with standard error) and fitted to a 2-phase decay curve using GraphPad Prism to derive kinetic parameters.

[3] = Plasma pharmacokinetics in Sprague-Dawley rats (ELISA); type: in vivo, rat
Experimental: Rats. Male Sprague-Dawley rats (sourced from Charles River, UK) were group housed in a temperature and light controlled facility on a 12 hour light/dark cycle with food and water available ad libitum. Rats selected for study inclusion were individually housed until completion of the study. All animals were subjected to health monitoring in accordance with the guidelines by the onsite home office registered veterinarian. All animal experimentation was covered under the UK Animals (Scientific Procedures) Act (1986) and EU directive 86/609/EEC. All such work was monitored by regular inspections of procedures and facilities by the on-site Veterinarian and UK Home Office inspectors. The study design required the surgical implantation of catheters into the jugular of male Sprague-Dawley rats.
Rats were anaesthetised using the inhalation anaesthetic isoflurane and placed in dorsal recumbency. The right jugular vein was exposed and a loose ligature was placed caudally and the cranial end of vein was ligated. A small incision was made between the ligatures into which the catheter (polyethylene 50 tubing) was inserted. The catheter was secured in place by tying the loose ligature around the catheterised vessel. A small incision was made in the scapular region to serve as the exit site of the catheter. The catheter was subcutaneously tunneled and exteriorised through the scapular incision. Patency of the catheter was tested, and the catheter was filled with a locking solution (heparinised saline) and sealed with a stainless steel pin. Post-operative monitoring of animals was performed according to Home Office good practice guidelines. Intravenous dosing was via the tail vein.
as §1
Treatment (rats). On Day 1 of the study, rats were divided into groups of three animals (per test agent being evaluated), and dosing was initiated according to the treatment plan summarized in the tables below
Sampling (rats). Serial venous blood samples (approx. 0.1-0.2 ml) were collected via the exteriorised jugular vein catheter at specified time points (0.5 to 72 hrs post dosing) and placed in heparinised containers. Prior to taking the blood samples the catheter was evacuated of heparinised saline to prevent dilution of the blood sample. Following each blood sample the volume of blood removed is replaced with an equal volume of heparinised saline via the catheter and sealed. Blood samples were centrifuged (5 minutes, 16,100 g, 4° C.) to separate the plasma. Plasma samples were transferred to fresh containers and promptly frozen and stored at −20° C. until used for analysis.
as §2, §3

[4] = Aggregation by HPLC size-exclusion chromatography; type: physicochemical
Experimental: Aggregation can be tested by analytical size-exclusion HPLC measuring the percentage of high molecular weight material compared to the conjugate eluting at a retention time characteristic of a monomeric conjugate.
Typically, 20 μg of protein was injected for analytical runs and 300 μg for semi-preparative runs.

[5] = target: T1, HER2; conditions: by mutagenesis, Schier R et al (1996); cited from earlier work

B1: scFv (TCT1067) (protein)
scFv: SGSGGSGQVQLVQSGAEVKKPGESLKISCKGSGYSFTSYWIAWVRQMPGKGLEYMGLIYPGDSDTKYSPSFQGQVTISVDKSVSTAYLQWSSLKPSDSAVYFCARHDVGYCTDRTCAAWPEWLGVWGQGTLVTVSSGGGGSGGGGSGGGGSQSVLTQPPSVSAAPGQKVTISCSGSSSNIGNNYVSWYQQLPGTAPKLLIYGHTNRPAGVPDRFSGSKSGTSASLAISGFRSEDEADYYCASWDYTLSGWVFGGGTKLTVLMASMTGGQQMG
[1]
  association rate: 3.9e+06 M⁻¹ s⁻¹ and 3.88e+06 M⁻¹ s⁻¹
  dissociation rate: 3.7e-05 s⁻¹ and 3.69e-05 s⁻¹
[2]; 1 × 2 mg/kg, Table 61 (AF-C5)
  Bioavailability (blood exposure, AUC, 24 hrs): 8.13 μghr/ml
  Elimination half-life (hrs) Total Antibody: 1.05 h
[2]; 1 × 2 mg/kg, Table 62
  Bioavailability (blood exposure, AUC, 24 hrs): 8.13 μghr/ml
  Elimination half-life (hrs) Total Antibody: 1.05 h
[2]; 1 × 5 mg/kg, Table 57
  Bioavailability (blood exposure, AUC, 24 hrs): 8.12 μghr/ml
  Elimination half-life (hrs) Total Antibody: 1.05 h
[2]; single i.v. dose, female BALB/c mice (5 mg/kg MMAF-C5, P5C5; 2 mg/kg AF-C5, DM1)
  plasma clearance (in words): clears rapidly
[3]; rats, 1 × 4 mg/kg, mean AUC in anti-payload and anti-protein detection, Table 64
  Bioavailability (blood exposure, AUC, 24 hrs): 20.46 μghr/ml
[3]; rats, 1 × 4 mg/kg, plasma ELISA, Table 64
  Elimination half-life (hrs) Total Antibody: 0.8 h
[3]; single i.v. dose 4 mg/kg, male Sprague-Dawley rats
  plasma clearance (in words): clears rapidly
[4]; scFv conjugation reaction with 5 molar equivalents of Auristatin F-C5 NHS (reactions 1 and 4)
  % aggregate by HPLC-SEC (FIG. 71): 0%
[4]; scFv conjugation reaction with 10 molar equivalents of Auristatin F-C5 NHS (reactions 2 and 5)
  % aggregate by HPLC-SEC (FIG. 71): 0%
[4]; scFv conjugation reaction with 25 molar equivalents of Auristatin F-C5 NHS (reactions 3 and 6)
  % aggregate by HPLC-SEC (FIG. 71): 0%
[5]
  increase of binding affinity over the anti-HER2 scFv of Example 27: over 1000 fold

From patent US11202837B2, “Biological materials and uses thereof” (Antikor Biopharma Limited, priority 2014, dated 2021)
